Data taken from the domain aggregation screens of Martell et al. (2025).

Experiment: soluble fraction after stress (log2 fold change); higher = more stays soluble; pooled small domains, quantitative proteomics
Conditions: stress: 75 degC
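Also: 20 min heating vs room temperature control held 20 min.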

Row | Sequence | soluble fraction (log2)
1 | HMKIVFGHVKWFDIDKGFGFLVLEDEGGDVLLHANVLKNFGRTSVSEDTKIEFEFLETDKGRQVSTIYNIL | -3.28
2 | HMKIVQDIAFSDFLNEVEKDNVLDVNIKGDLINGNLADGRKFKTYTPYDPNLIEKLSNKNVTINVEPYN | 0.512
3 | HMKKAENEKLNIPYDVTEFLASSIKDDIRMMEGAMVKLLALSSLTKQDITQSLAKRVIQDVLGSSA | -0.209
4 | HMKKAMIISTKRGTPAAELDKIIREFEAKGLSVTMIRGTDYNVFGLVGDTTVIDEKQVRANPYVENVQRV | -0.157
5 | HMKKATYDVMVREALVSFKKKGATLQSIKKKIKADYAIEANATAVKSAIQKGMEAGSIRKSYDLYFFMD | -2.8
6 | HMKKDDLKQINGIGTTIEKKLNEIDIYNFYQISNLSKEDIETISEKIKTFPGKIERDNWVGQAQELL | 0.0235
7 | HMKKIFIDAPLDTMITIPKDTTHHLLTVFRHKMEKPVLVGGSDGRTGVYQIQDVVDGEASAKLVGDIQ | 0.738
8 | HMKKISAKQQQILDYISSYSLEHGYPPSVREIGAEMGLRSPSTVHAHLKKLQEAGYLEPNEHKSRALTP | -0.146
9 | HMKKITTANPLDINRATLAQLDTLPGIGPVTAERIIAYRSKVGRINSLDELKKISGLGGMKFEEIKPLLRV | 0.0978
10 | HMKKKLPRYLQEQKYGNGMVFYRYNPTARYIDEGIVTRTNLGSDLSIAKKKANEFNKLIDAFLQQQSE | -1.16
11 | HMKKMSFKEAFLKYVEIKDNPYNMESVKMLVSLQPLIVKAYSILGVDKVRRLNYVKTKIQDAIINGD | -2.7
12 | HMKKNLELGLLPHEVKSILGEPDFIDTITDIDGIRYDMWSYTKLNVTKRLYFEDLFLVRMEE | -3.31
13 | HMKKNNTTPIPKTLNYVNIKGLSNEAVERLNKHKPSTLGQASRLEGITPAATSLISIAIKKNQLLEKAES | 0.0664
14 | HMKKPAERRKELVDAAAHLFAEKGYENTSVRDILDAVGGAPGMFYYYFKSKQDIYVAVMEDF | -3.71
15 | HMKKPANLISEDRMVEVLYDVIIINTAKGVNKQLLQNNINNPLNYIYRSHGIDSLQFAESNAYYTS | -0.563
16 | HMKKSGFFSAGDRIQLTDNKGRQYSFNITEGKEFHTHQGFIKHDDLIGMPEGSVVSINSTTGVVQKFMAF | 0.32
17 | HMKKSIRIFELMKAKVAAEIFDQMILEGKIEDVFDIIVRLKDSNVSNIMKTMSVENSSRLVQKLERYNKD | -3.12
18 | HMKKVRIPDDPEEAYRKALKTAMNIVGYKDNTEFTLREKLSERGYSGETVDAVAEFMKSKGYV | -0.0562
19 | HMKKVTMQDIANILNISRVTVWKVLNNQPGVSKQLRDQILLTAKETGYLKPGQEAEAYLEENNIYFEG | -0.272
20 | HMKKYDIKEAQEIAEINRIPGLVTTSHGRRVYFDPKIMQYVSEEQIVKKYGQKTVKMLDQWYVSNILNK | -0.21
21 | HMKKYLIIDAANEKIIFKIIDNNKTYTNDYENSRKNFDRFAVLLFNFLNKNMISFDTIDKAL | -0.118
22 | HMKLARGEFEIMAKFIKEISGISLEQNKTYLIESRLSDLAESEGVKTFSDFFFKAKFNKILKEKIIDAI | -1.13
23 | HMKLHFTINGVHYTWYKQFIRGIQIRELGNIPREDELYLDLPDGWKDDFIEDDEIVDLARPGVEHFISRAK | -4.84
24 | HMKLIIVPNLVGQSRRSVEISLQQIGLRIDTVYTEFNPDYPKGTVAWQFPKSGDHIKKGMGLQITVSQG | -0.391
25 | HMKLINEDLNNEIVFEENKVNLLVIENKKKFVQFIQEIIKQINGDEGKFSLFDINTELKIHDKIDII | 0.174

Row | Sequence | soluble fraction (log2)
26 | HMKLIPLTDMRGQLRSGAPLPWGVRDAQGNLLLGKGHVIASDDMLEALLARGMFVDAEEAKAARG | 0.0132
27 | HMKLISVAVMRASDAAEIAGGTDSKTLMYRAGLGLFQSWDWHGKIDIVTGSGNNAGDGYVLALLL | 0.14
28 | HMKLNKRQYAYQVIRSRILDGTYVPGQRIIIDQIAKEVNSSHIPVREAIHQLESEQLIDYEPNIGAIVKG | -0.242
29 | HMKLSALRDKIKEHLLRQIQNGELQVGKTINLAALSRVTGISVTPIREALTQLEQAQVIQAVPNRGFVVA | -0.418
30 | HMKLSIGGTIEKLRRNKGLSHQQLANALGVTPDTVEKWEINAAYPDITLLSPIARLLGTTLDALLMF | -1.77
31 | HMKLSKLTKPELDEIFRNANFTEEEEKVFWLLARGKSLEQISAKTFLPIATVNRRVKSIKDKIG | -0.436
32 | HMKLTKPKLIQLIHIAKSKLNMDELSYRVLLDNLTGKTSTTKMTVGELLKVYESMKDKGFKPQV | -0.993
33 | HMKLTTRQTEIINIVKAEQPISGEKIAQNLGLSRATLRNDLSILTMTGLLDAKPKVGYFYTGQ | -0.976
34 | HMKLVESALSILEEAVDRDFHGNLGDAARYFDIPYQTIYSWLKSRKRVPSLRALEPVLEKLGVSFTT | -2.01
35 | HMKLVTIPNVIGKTKEDAMKTLKDLGVTVTVETKESEKDDGTVIAQSKAEGTKLTAGENVTITVSKKKK | ≥ 1.04
36 | HMKMATITKRTNPSGAVVYRAQVRVKREGYPPYSESRTFSKKSLATEWAKRREFEIETNPDLLFN | -1.76
37 | HMKMLEINDNDSVGLKNLKTQYNHNQKVIENFQLEINKVINDGELPDKYLLDGMEKYQKLNMQIMSTIEKQ | 0.0503
38 | HMKMPNGYGSVYKLSGNRRKPWAARVTDGWVNDTKTKKSKQKYKFIGFYETRKEALLALADYNANP | -2.05
39 | HMKMSLKENLLELLQKSSGEFLSGERAAETLGVSRTAVWKAVTSLKNEGYNIESVTNRGYRFS | -0.34
40 | HMKNANGYGSITKLKGNRRKPYMVRITVGRDENGFPIRKVLGYYSSKANAVAALSDYNREPYDI | -1.78
41 | HMKNENSLLVSRLAEEKIINRAKLVLMEYLKLSEPQAHRYIEKQAMDLQISRAEVAARVLETYE | -1.35
42 | HMKNEVENLSYMINRIIEYRDLNNLSNKNLANKIGISEALLSYILNGRRKLSKEIQRKIALFLLND | -1.99
43 | HMKNFAPVWGEEGAEFGKEVDTGFRLRIVEKEKDVNDLFEVIQKHTIQSQWKPGSTGTESIYKRI | 0.886
44 | HMKNHIEERRKARGMTQQQLASELGVSRQTIISLENGKYNPSILLAHSIARLFGERIEDIFILR | -2.45
45 | HMKNINTNIGKNLKRIRKLRGLTIDALATSSGVSKSMISEIERGIRNPSITIIWSLANALKTPLNYFLKE | -1.46
46 | HMKNKFYEEFSDYIFKHTGIHYAEANYYQLDARINKLMKFLETSDENDVLKAIQGGAVKDQRVHQMIVDLA | -2.16
47 | HMKNKRERLGIISEILRMQVIGSQEELLDILRAKGYDVTQATLSRDLKVLKVAKTPLSNGAYKYVLPPQ | -1.39
48 | HMKNLSQAEFMYLFKILAFGSTDPDNHPEMAATGMEIAKMLQGLLLSGNVLADILRKNQNVQFWL | 0.0572
49 | HMKNNITFSEFLHEVDNGRVIKVNIQGNNITGILADGKSFNTYTPNDPSLIEKLTSKGVSISATPI | 0.13
50 | HMKNNLKGSPIIIAGGYGVGSKENFNLLFDLAKVLNAEVGASRAAVDAGFVEHDRQIGQTGVTVRP | 0.143
